Data published in the Immune Epitope Database (IEDB).

Assays:
HLA-B*27:05 = test: IEDB peptide-MHC binding, purified MHC/direct/fluorescence; filed as Kd, often an IC50 or EC50 that approximates it; ≥ and ≤ were set here for values at or beyond the usual limits of such assays; conditions: source organism: West Nile virus
HLA-B*48:01 = test: as above
HLA-A*32:01 = test: IEDB peptide-MHC binding, purified MHC/competitive/radioactivity; filed as Kd, often an IC50 or EC50 that approximates it; ≥ and ≤ were set here for values at or beyond the usual limits of such assays
HLA-B*08:01 = test: as above
HLA-B*15:01 = test: as above
HLA-A*30:01 = test: as above
HLA-B*15:03 = test: as above
HLA-B*44:02 = test: as above
HLA-B*18:01 = test: as above
HLA-B*45:01 = test: as above
HLA-B*40:02 = test: as above
HLA-B*44:03 = test: as above
HLA-B*40:01 = test: as above
HLA-A*02:12 = test: IEDB peptide-MHC binding, purified MHC/competitive/fluorescence; filed as Kd, often an IC50 or EC50 that approximates it; ≥ and ≤ were set here for values at or beyond the usual limits of such assays; conditions: source organism: Toxoplasma gondii
HLA-A*02:01 = test: as above; conditions: source organism: Toxoplasma gondii
[1] = source organism: Vaccinia virus WR
[2] = source organism: Mammarenavirus choriomeningitidis
[3] = source organism: SARS coronavirus Tor2
[4] = source organism: Mammarenavirus machupoense
[5] = source organism: Mammarenavirus guanaritoense
[6] = source organism: Mammarenavirus whitewaterense
[7] = source organism: Mammarenavirus lassaense

Sequence: YRLRGEERK
- Kd (HLA-B*27:05): 0.883 µM
- Kd (HLA-B*48:01; source organism: West Nile virus): ≥ 20 µM

Sequence: LSINSSFYF
- Kd (HLA-A*32:01; source organism: Variola virus): 2.96 µM
- Kd (HLA-B*08:01; source organism: Variola virus): 3.16 µM
- Kd (HLA-B*15:01; source organism: Variola virus): 0.00102 µM
- Kd (HLA-A*30:01; source organism: Variola virus): 0.97 µM
- Kd (HLA-B*15:03; source organism: Variola virus): 0.00481 µM

Sequence: METMFFIRF
- Kd (HLA-B*15:03; [1]): 0.0526 µM

Sequence: MVKNNKIQK
- Kd (HLA-A*32:01; [1]): ≥ 77.8 µM
- Kd (HLA-B*08:01; [1]): 17.8 µM
- Kd (HLA-B*15:01; [1]): 18.3 µM
- Kd (HLA-A*30:01; [1]): 0.0118 µM
- Kd (HLA-B*15:03; [1]): 9.55 µM

Sequence: NDSILSHNF
- Kd (HLA-B*44:02; [2]): 0.182 µM
- Kd (HLA-B*18:01; [2]): 0.423 µM
- Kd (HLA-B*45:01; [2]): ≥ 77.7 µM
- Kd (HLA-B*40:02; [2]): 5.93 µM
- Kd (HLA-B*44:03; [2]): 11.4 µM
- Kd (HLA-B*40:01; [2]): ≥ 76.1 µM

Sequence: FISRNKNIF
- Kd (HLA-B*15:03; [1]): 4.03 µM

Sequence: WEIQQVVDA
- Kd (HLA-B*44:02; [3]): ≥ 30.3 µM
- Kd (HLA-B*18:01; [3]): 4.92 µM
- Kd (HLA-B*45:01; [3]): 0.135 µM
- Kd (HLA-B*40:02; [3]): 0.0543 µM
- Kd (HLA-B*44:03; [3]): 9.04 µM
- Kd (HLA-B*40:01; [3]): 1.03 µM

Sequence: FKVTTRRSI
- Kd (HLA-B*15:03; [1]): 0.00457 µM

Sequence: NLMVNEQAA
- Kd (HLA-A*02:12): 0.0189 µM
- Kd (HLA-A*02:01): ≥ 20 µM

Sequence: VELVAEMDG
- Kd (HLA-B*44:02; [3]): 10.6 µM
- Kd (HLA-B*18:01; [3]): ≥ 28.3 µM
- Kd (HLA-B*45:01; [3]): ≥ 29.4 µM
- Kd (HLA-B*40:02; [3]): ≥ 77.3 µM
- Kd (HLA-B*44:03; [3]): ≥ 24.5 µM
- Kd (HLA-B*40:01; [3]): ≥ 76.2 µM

Sequence: SMVQILSSL
- Kd (HLA-B*15:03; source organism: Vaccinia virus Copenhagen): ≥ 77.2 µM

Sequence: TERLKLFAA
- Kd (HLA-B*44:02; [3]): ≥ 65.8 µM
- Kd (HLA-B*18:01; [3]): 0.301 µM
- Kd (HLA-B*45:01; [3]): 0.00473 µM
- Kd (HLA-B*40:02; [3]): 0.024 µM
- Kd (HLA-B*44:03; [3]): ≥ 41.2 µM
- Kd (HLA-B*40:01; [3]): 19.2 µM

Sequence: SEILKTLGF
- Kd (HLA-B*44:02; [4]): 0.00421 µM
- Kd (HLA-B*18:01; [4]): 0.655 µM
- Kd (HLA-B*45:01; [4]): 1.61 µM
- Kd (HLA-B*40:02; [4]): 0.165 µM
- Kd (HLA-B*44:03; [4]): 0.0141 µM
- Kd (HLA-B*40:01; [4]): 1 µM

Sequence: VQTIVFIWF
- Kd (HLA-B*15:03; source organism: Vaccinia virus): 0.306 µM

Sequence: AEIRASANLA
- Kd (HLA-B*44:02; [3]): 0.0801 µM
- Kd (HLA-B*18:01; [3]): 8.13 µM
- Kd (HLA-B*45:01; [3]): 0.00463 µM
- Kd (HLA-B*40:02; [3]): 2.25 µM
- Kd (HLA-B*44:03; [3]): 0.0986 µM
- Kd (HLA-B*40:01; [3]): 0.202 µM

Sequence: RDLVISDSS
- Kd (HLA-B*44:02; [5]): ≥ 77.9 µM
- Kd (HLA-B*18:01; [5]): ≥ 77.5 µM
- Kd (HLA-B*45:01; [5]): ≥ 77.7 µM
- Kd (HLA-B*40:02; [5]): 2.49 µM
- Kd (HLA-B*44:03; [5]): ≥ 35.8 µM
- Kd (HLA-B*40:01; [5]): ≥ 53.4 µM

Sequence: LDIQKCGEL
- Kd (HLA-B*44:02; [6]): ≥ 77.9 µM
- Kd (HLA-B*18:01; [6]): ≥ 53.2 µM
- Kd (HLA-B*45:01; [6]): ≥ 56.9 µM
- Kd (HLA-B*40:02; [6]): 9.66 µM
- Kd (HLA-B*44:03; [6]): ≥ 78.1 µM
- Kd (HLA-B*40:01; [6]): ≥ 46.7 µM

Sequence: IEEIMNIVLI
- Kd (HLA-B*44:02; [7]): 0.151 µM
- Kd (HLA-B*18:01; [7]): 3.15 µM
- Kd (HLA-B*45:01; [7]): 1.3 µM
- Kd (HLA-B*40:02; [7]): 0.0984 µM
- Kd (HLA-B*44:03; [7]): 0.445 µM
- Kd (HLA-B*40:01; [7]): 1.81 µM

Sequence: WSIYLSLHY
- Kd (HLA-A*32:01; [1]): ≥ 29 µM
- Kd (HLA-B*08:01; [1]): 2.72 µM
- Kd (HLA-B*15:01; [1]): 0.0482 µM
- Kd (HLA-A*30:01; [1]): 17 µM
- Kd (HLA-B*15:03; [1]): 0.00885 µM

Sequence: FELTSMKYF
- Kd (HLA-B*44:02; [3]): 0.0927 µM
- Kd (HLA-B*18:01; [3]): 3.72 µM
- Kd (HLA-B*45:01; [3]): ≥ 33.9 µM
- Kd (HLA-B*40:02; [3]): 2.32 µM
- Kd (HLA-B*44:03; [3]): 0.161 µM
- Kd (HLA-B*40:01; [3]): 10.7 µM

Sequence: RREKRSVAL
- Kd (HLA-B*08:01; source organism: Dengue virus 2 Jamaica/1409/1983): 0.0409 µM
- Kd (HLA-B*48:01; source organism: Dengue virus): 0.843 µM
